Values joined by “and” are separate entries in the source; they are usually repeats but may differ in a detail not shown here. Equal entries are not always repeated.
B1: Protein GrpE, P09372 (parent)
chain: MSSKEQKTPEGQAPEEIIMDQHEEIEAVEPEASAEQVDPRDEKVANLEAQLAEAQTRERDGILRVKAEMENLRRRTELDIEKAHKFALEKFINELLPVIDSLDRALEVADKANPDMSAMVEGIELTLKSMLDVVRKFGVEVIAETNVPLDPNVHQAIAMVESDDVAPGNVLGIMQKGYTLNGRTIRAAMVTVAKAKA

Variants of: B1
Details: Escherichia coli (strain K12); pH 6.8; Thermal; CD; potassium phosphate 10 mM; transition: 3; reversible: yes; structure 1DKG; whole UniProt chain shown

Row | Variant | Tm [°C] | change of melting temperature, mutant - wild type (higher = more stable)
1 | MSSKEQKTPEGQAPEEIIMDQHEEIEAVEPEASAEQVDPRDEKVANLEAQLAGAQTRERDGILRVKAEMENLRRRTELDIEKAHKFALEKFINELLPVIDSLDRALEVADKANPDMSAMVEGIELTLKSMLDVVRKFGVEVIAETNVPLDPNVHQAIAMVESDDVAPGNVLGIMQKGYTLNGRTIRAAMVTVAKAKA [E53G] | 81 | -2 °C
2 | MSSKEQKTPEGQAPEEIIMDQHEEIEAVEPEASAEQVDPRDEKVANLEAQLAEAQTRERDGILRVKAEMENLRRRTELDIEKAHKFALEKFINELLPVIDSLDRALEVADKANPDMSAMVEDIELTLKSMLDVVRKFGVEVIAETNVPLDPNVHQAIAMVESDDVAPGNVLGIMQKGYTLNGRTIRAAMVTVAKAKA [G122D] | – | -3 °C and 0 °C and -2 °C

Source: FireProtDB (doi:10.1016/s0022-2836(02)00915-4)
